Several values for one entry are separate records, joined by “and”; a condition that tells them apart may be missing. Equal values may be shown once.
T1: recombinant human TIMP-3 (human, UniProt P35625 24-211)
T1 construct: also called HuTIMP-3; huTIMP-3
T1 sequence (looked up): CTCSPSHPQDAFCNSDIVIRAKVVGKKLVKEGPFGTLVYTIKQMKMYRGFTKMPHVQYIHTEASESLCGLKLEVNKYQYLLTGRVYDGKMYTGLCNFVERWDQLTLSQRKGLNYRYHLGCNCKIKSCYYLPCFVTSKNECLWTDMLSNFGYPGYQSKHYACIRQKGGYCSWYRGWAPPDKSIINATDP

T2: recombinant mouse TIMP-3 (mouse, UniProt P39876 24-211)
T2 construct: also called MuTIMP-3
T2 sequence (looked up): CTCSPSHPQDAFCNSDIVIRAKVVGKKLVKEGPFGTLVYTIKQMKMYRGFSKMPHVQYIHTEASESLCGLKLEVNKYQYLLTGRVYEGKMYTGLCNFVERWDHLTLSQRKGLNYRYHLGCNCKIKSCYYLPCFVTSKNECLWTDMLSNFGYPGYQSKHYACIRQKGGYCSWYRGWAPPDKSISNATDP


Key:
MMP-13 = MMP-13 (UniProt P45452 20-471, limits assumed); assay: cell-based or functional assay
recombinant human TIMP-3 [1] = target: T1, recombinant human TIMP-3; assay: direct ELISA, coated huTIMP-3
Description: (§1) After incubation, the coating solution is removed and replaced with 250 microL/well of blocking buffer (1% BSA, TBS [pH 7.5], 1 mM CaCl₂) and incubated with shaking for 1 hour at room temperature. The plates are then washed three times with 200 microL/well with wash buffer 1 (TBS [pH 7.5], 1 mM CaCl₂). The LRP-1 peptides are titrated in assay buffer (0.1% BSA, TBS [pH 7.5], 1 mM CaCl₂, 0.02% Tween-20) in a separate polypropylene non-treated round-bottom 96-well plate (BD Falcon™) starting at 1 microM concentration and then diluted serially 4-fold for 8-points, with the last point buffer only. Then 100 microL/well of the diluted LRP-1 peptide titration is added to the TIMP-3 coated plate and allowed to bind for 1.5 hour at room temperature with shaking. After incubation, the plate is washed three times with 200 microL/well of wash buffer 2 (TBS [pH 7.5], 1 mM CaCl₂, 0.02% Tween-20). […] The assay plate is then washed three times with 200 microL/well with wash buffer 2. The plate is developed by adding 100 microL/well of 1:1 mixture of TMB and H₂O₂ (Pierce, Fisher Thermo Scientific, Rockford Il.), the reaction is stopped by adding 100 microL/well 2NH₂SO₄ (VWR), and read on a SpectraMax microplate reader (Molecular Devices, Sunnyvale, Calif.) at OD450 nm using SOFTmax Pro software version 3.1.2. Data is analyzed using GraphPad Prism 4.01 software. Binding of LRP-1 peptides to TIMP-3 is expressed as binding EC50.

recombinant mouse TIMP-3 = target: T2, recombinant mouse TIMP-3; assay: direct ELISA, coated muTIMP-3
Description: as §1

[2] = target: T3, recombinant TIMP-3 (human or mouse; Table 2 does not say which); assay: binding ELISA, Assay 2
T3 construct: The methods say 'human or mouse TIMP-3'

[3] = target: T3, recombinant TIMP-3 (human or mouse; …); assay: AlphaScreen, biotinylated TIMP-3, Assay 1
Description: (§2) Peptides were also evaluated by AlphaScreen® (Amplified Luminescent Proximity Homogeneous Assay; PerkinElmer, Waltham, Mass.) a very sensitive non-radioactive homogeneous assay technology that allows the screening of a large range of biological interactions and activities, substantially according to the manufacturer's instructions. Briefly, all dilutions are made in AlphaScreen® Buffer: [40 mM HEPES pH 7.5, 100 mM NaCl, 1 mM CaCl2, 0.1% BSA, 0.05% Tween-20]. The LRP-1 peptides are titrated in a separate polypropylene 96-well plate (Falcon) starting at 4 microM concentration and then diluted serially 3-fold for 12-points, with the last point buffer only. First 2 microL/well of protein titration curve is added to white, small volume, 384-well assay plate (Greiner Bio-One, Stonehouse, UK) in duplicate. Next, 2 microL of biotinylated (AFS, in-house conjmicroGation) recombinant human or mouse TIMP-3, is added at 12 nM (or 3 nM final assay concentration) to the assay plate. Lastly, in subdued light 4 microL of a mixture of streptavidin donor beads, anti-mouse IgG acceptor beads (PerkinElmer) both diluted to 20 microG/mL (10 microG/mL final assay concentration) and 2 nM (1 nM final concentration) rat-anti-HA (clone3F10)-HRP (Roche Diagnostics) is added to the plates. Plates containing 8 microL final assay volme are covered with TopSeal A (to prevent evaporation), spun quickly at 1000 rpm, and incubated overnight (covered with foil to prevent light exposure) before reading on Fusion plate reader (PerkinElmer) using AlphaScreen® parameters (excitation 680 nm and emission 520-620 nm). Data is analyzed using GraphPad Prism 4.01 software. Binding to TIMP-3 is reported as total signal (cps).

recombinant human TIMP-3 [4] = target: T1, recombinant human TIMP-3; assay: indirect ELISA, huTIMP-3 captured by anti-TIMP-3 clone 277128
Description: Then 100 microL/well of the diluted LRP-1 peptide titration is added to the TIMP-3 coated plate and allowed to bind for 1.5 hour at room temperature with shaking. After incubation, the plate is washed three times with 200 microL/well of wash buffer 2 (TBS [pH 7.5], 1 mM CaCl₂, 0.02% Tween-20). […] The assay plate is then washed three times with 200 microL/well with wash buffer 2. The plate is developed by adding 100 microL/well of 1:1 mixture of TMB and H₂O₂ (Pierce, Fisher Thermo Scientific, Rockford Il.), the reaction is stopped by adding 100 microL/well 2NH₂SO₄ (VWR), and read on a SpectraMax microplate reader (Molecular Devices, Sunnyvale, Calif.) at OD450 nm using SOFTmax Pro software version 3.1.2. Data is analyzed using GraphPad Prism 4.01 software. Binding of LRP-1 peptides to TIMP-3 is expressed as binding EC50.
After incubation, the plate contents are discarded and 250 microL/well of blocking buffer (1% BSA, TBS [pH 7.5], 1 mM CaCl₂) is added to the plate which is incubated with shaking for 1 hour at room temperature. The plate is then washed three times with 200 microL/well with wash buffer 1 (TBS [pH 7.5], 1 mM CaCl₂) followed by the addition of 100 microL of 20 nM recombinant human TIMP-3. The plate is incubated at room temperature for 1 hour. The LRP-1 peptides are titrated as described previously, and 100 microL/well of the diluted LRP-1 peptide titration is added to the TIMP-3 coated plate and allowed to bind for 1.5 hour at room temperature with shaking. After incubation, the plate is washed and the ELISA performed substantially as described previously for the direct binding ELISA.

recombinant human TIMP-3 [5] = target: T1, recombinant human TIMP-3; assay: cell-based or functional assay
[6] = target: T3, recombinant TIMP-3 (human or mouse; …); assay: AlphaScreen, biotinylated TIMP-3, Assay 2
Description: as §2

Row | Binder | Direct Inhibition of MMP13 (% decrease), 1000 nM (MMP-13) [%] | EC50 (recombinant human TIMP-3 [1]) | EC50 (recombinant mouse TIMP-3) | EC50 [2] [nM] | total signal (cps) [3] [cps] | EC50 (recombinant human TIMP-3 [4]) | % of the inhibitory activity of TIMP-3 + peptide compared to TIMP-3 alone, 80 nM (recombinant human TIMP-3 [5]) [%] | % of the inhibitory activity of TIMP-3 + peptide compared to TIMP-3 alone, 2000 nM (recombinant human TIMP-3 [5]) [%] | % of the inhibitory activity of TIMP-3 + peptide compared to TIMP-3 alone, 400 nM (recombinant human TIMP-3 [5]) [%] | % of the inhibitory activity of TIMP-3 + peptide compared to TIMP-3 alone, 16 nM (recombinant human TIMP-3 [5]) [%] | total signal (cps) [6] [cps]
1 | CGPSSFSCPGTHVCVPERWLCDGDKDCADGADESIAAGCLYNST (Tags implied (Ni-NTA, anti-HA detection), not described) [LRP-1 peptide LA17] | 41 | 886 nM | – | – | 2200 | – | 93 | 77 | 77 | – | –
2 | LRP-1 peptide LA26 (Tags implied (Ni-NTA, anti-HA detection), not described) not shown | 1 | 118 nM | 134 nM | 300 | 2200 | 179 nM | 109 | 108 | 112 | 96 | –
3 | LRP-1 peptide LA16 (peptide) not shown | 20 | – | – | – | – | – | 101 | 89 | 52 | 105 | –
4 | LRP-1 peptide LA21-23 (peptide) not shown | 19 | – | – | – | – | – | 96 | 107 | 100 | 97 | –
5 | LRP-1 peptide LA11-20 (peptide) not shown | 26 | – | – | – | – | – | – | – | – | – | –
6 | LRP-1 peptide LA21 (Tags implied (Ni-NTA, anti-HA detection), not described) not shown | -2 | 303 nM | 206 nM | 1020 | 2200 | 313 nM | – | – | – | – | –
7 | LRP-1 peptide LA6 (Tags implied (Ni-NTA, anti-HA detection), not described) not shown | 57 | 95 nM | 38 nM | 1210 | 2200 | 9 nM | – | – | – | – | –
8 | LRP-1 peptide LA28 (Tags implied (Ni-NTA, anti-HA detection), not described) not shown | 32 | – | – | 300 | 2200 | 972 nM | – | – | – | – | –

Other lines, results leading:

Row | Direct Inhibition of MMP13 (% decrease), 1000 nM (MMP-13) [%] | EC50 (recombinant human TIMP-3 [1]) | EC50 (recombinant mouse TIMP-3) | EC50 [2] [nM] | total signal (cps) [3] [cps] | EC50 (recombinant human TIMP-3 [4]) | % of the inhibitory activity of TIMP-3 + peptide compared to TIMP-3 alone, 80 nM (recombinant human TIMP-3 [5]) [%] | % of the inhibitory activity of TIMP-3 + peptide compared to TIMP-3 alone, 2000 nM (recombinant human TIMP-3 [5]) [%] | % of the inhibitory activity of TIMP-3 + peptide compared to TIMP-3 alone, 400 nM (recombinant human TIMP-3 [5]) [%] | % of the inhibitory activity of TIMP-3 + peptide compared to TIMP-3 alone, 16 nM (recombinant human TIMP-3 [5]) [%] | total signal (cps) [6] [cps] | Binder
9 | 69 | – | – | – | – | – | – | – | – | – | – | LRP-1 peptide LA5 (peptide) not shown
10 | 59 | 456 nM and 340 nM | 394 nM and 478 nM | 426 | 2200 | 185 nM and 200 nM | – | – | – | – | – | LRP-1 peptide LA22 (Tags implied (Ni-NTA, anti-HA detection), not described) not shown
11 | 47 | – | – | – | – | – | – | – | – | – | – | LRP-1 peptide LA27 (peptide) not shown
12 | 26 | – | – | – | – | – | 101 | 104 | – | – | – | LRP-1 peptide LA4-5 (peptide) CPSDRFKCENNRCIPNRWLCDGDNDCGNSEDESNATCSARTCPPNQFSCASGRCIPISWTCDLDDDCGDRSDESASCAYPT
13 | 7 | – | – | – | – | – | 84 | 109 | 80 | – | – | LRP-1 peptide LA3 (peptide) not shown
14 | 46 | – | – | – | – | – | 107 | 84 | – | 104 | – | CLPSQFKCTNTNRCIPGIFRCNGQDNCGDGEDERDCPEVT [LRP-1 peptide LA23]
15 | 0 | – | – | – | – | – | – | – | – | – | – | CNASSQFLCSSGRCVAEALLCNGQDDCGDSSDERGCHINE [LRP-1 peptide LA20]
16 | 53 | – | – | – | – | – | 100 | – | 104 | 100 | – | LRP-1 peptide LA26-28 (peptide) CEPYQFRCKNNRCVPGRWQCDYDNDCGDNSDEESCTPRPCSESEFSCANGRCIAGRWKCDGDHDCADGSDEKDCTPRCDMDQFQCKSGHCIPLRWRCDADADCMDGSDEEACGTGVRT
17 | – | – | – | ~2500 | 2200 | – | – | – | – | – | – | LRP-1 peptide LA7 (The end 1061 is inferred from the end of LA5-7; Tags implied, not described) not shown
18 | – | 187 nM | 140 nM | ~600 | 2200 | 85 nM | – | 53 | 92 | – | 2000 | LRP-1 peptide LA23-24 (Tags implied (Ni-NTA, anti-HA detection), not described) not shown

From patent publication US20120231013A1 (Amgen, published 2012)
